Results taken from patent US20200270325A1 (Merck Sharp & Dohme, published 2020).
Numbered stars: 1 amine (or outer) side, 2 acyl side, 3 side chain; on linkers, the order of the positions; unused ones are H or OH. Square brackets hold non-standard residues; d marks the D form. Side chains are listed from the residue outwards. Ends that are not written are not given here. * marks the point of attachment. Phe(4-CH2NH2) = NCc1ccc(C[C@H](N)C(=O)O)cc1; C18 diacid = O=C(O)CCCCCCCCCCCCCCCCC(=O)*; C16 diacid = O=C(O)CCCCCCCCCCCCCCC(=O)*; γGlu = O=C(O)[C@H](CCC(=O)[*:2])N[*:1]; Met(O2) = CS(=O)(=O)CC[C@H](N)C(=O)O; αMeD = C[C@](N)(CC(=O)O)C(=O)O; αMeS = C[C@](N)(CO)C(=O)O; AEEA = NCCOCCOCC(=O)O; Aib = CC(C)(N)C(=O)O

Legend:
[1] = biological target: human GLP-1 receptor (GLP1R) (human, UniProt P43220 24-463); test: cell-based or functional assay
[2] = biological target: human Glucagon receptor (GCGR) (human, UniProt P47871 26-477); test: cell-based or functional assay
human Glucagon receptor (GCGR), sequence (P47871 26-477): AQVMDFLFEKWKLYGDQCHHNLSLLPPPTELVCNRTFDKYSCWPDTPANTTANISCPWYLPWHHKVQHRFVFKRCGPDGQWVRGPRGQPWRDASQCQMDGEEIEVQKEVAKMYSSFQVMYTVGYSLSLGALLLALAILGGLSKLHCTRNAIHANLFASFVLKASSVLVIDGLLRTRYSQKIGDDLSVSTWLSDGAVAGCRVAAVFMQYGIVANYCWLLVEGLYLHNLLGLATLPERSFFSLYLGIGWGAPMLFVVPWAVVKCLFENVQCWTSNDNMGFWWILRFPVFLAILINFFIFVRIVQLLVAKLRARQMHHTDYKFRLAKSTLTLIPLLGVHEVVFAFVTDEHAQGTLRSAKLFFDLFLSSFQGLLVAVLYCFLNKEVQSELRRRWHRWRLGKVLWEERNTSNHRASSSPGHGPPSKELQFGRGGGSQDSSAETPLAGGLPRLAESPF

H[Aib]QGTFTSD[Phe(4-CH2NH2)]([AEEA-AEEA-γGlu-C16 diacid])SKYLD[Aib]RAAQDFVQWLL[αMeD]TK-{γGlu-NH2} [TP657]
GLP1R EC50 human [1]: 2.18 nM
GCGR EC50 human [2]: 0.14 nM

H[Aib]QGTFTSDYSKYLD[Aib]RAAK([AEEA-AEEA-γGlu-C16 diacid])DFVQWLLATK-{γGlu-NH2} [TP662]
GLP1R EC50 human [1]: 0.52 nM
GCGR EC50 human [2]: 1.45 nM

B1: TP659 (peptide)
peptide: HXQGTFTSDXSKYLDXRAAQDFVQWLLAX
modifications: D-Ser (s) at 2; pAF(PEG2PEG2γEC16OH) at 10; Aib (U) at 16; KγE at 30-31 (γ-glutamic acid after Lys 30); C-terminal amide
GLP1R EC50 human [1]: > 4.9 nM
GCGR EC50 human [2]: 0.46 nM

B2: TP638 (peptide)
peptide: H[Aib]QGTFTSDYSKYLDARAAQDFV[Phe(4-CH2NH2)]([AEEA-γGlu-C18 diacid])WLLDT-NH2
modifications: N-terminus assumed
SMILES: CC(C)C[C@H](NC(=O)[C@H](Cc1ccc(O)cc1)NC(=O)[C@H](CCCCN)NC(=O)[C@H](CO)NC(=O)[C@H](Cc1ccc(O)cc1)NC(=O)[C@H](CC(=O)O)NC(=O)[C@H](CO)NC(=O)[C@@H](NC(=O)[C@H](Cc1ccccc1)NC(=O)[C@@H](NC(=O)CNC(=O)[C@H](CCC(N)=O)NC(=O)C(C)(C)NC(=O)[C@@H](N)Cc1c[nH]cn1)[C@@H](C)O)[C@@H](C)O)C(=O)N[C@@H](CC(=O)O)C(=O)N[C@@H](C)C(=O)N[C@@H](CCCNC(=N)N)C(=O)N[C@@H](C)C(=O)N[C@@H](C)C(=O)N[C@@H](CCC(N)=O)C(=O)N[C@@H](CC(=O)O)C(=O)N[C@@H](Cc1ccccc1)C(=O)N[C@H](C(=O)N[C@@H](Cc1ccc(CNC(=O)COCCOCCNC(=O)CC[C@H](NC(=O)CCCCCCCCCCCCCCCCC(=O)O)C(=O)O)cc1)C(=O)N[C@@H](Cc1c[nH]c2ccccc12)C(=O)N[C@@H](CC(C)C)C(=O)N[C@@H](CC(C)C)C(=O)N[C@@H](CC(=O)O)C(=O)N[C@H](C(N)=O)[C@@H](C)O)C(C)C
GLP1R EC50 human [1]: 1.55 nM
GCGR EC50 human [2]: 5.05 nM

H[αMeS]QGTFTSD[Phe(4-CH2NH2)]([AEEA-AEEA-γGlu-C16 diacid])SKYLD[Aib]RAAQDFVQWLLATK-{γGlu-NH2} [TP660]
GLP1R EC50 human [1]: 3.59 nM
GCGR EC50 human [2]: 4.54 nM

B3: TP639 (peptide)
peptide: H[Aib]QGTFTSDYSKYLDARAAQDFV[Phe(4-CH2NH2)]([γGlu-C18 diacid])WLLDT-NH2
modifications: N-terminus assumed
SMILES: CC(C)C[C@H](NC(=O)[C@H](Cc1ccc(O)cc1)NC(=O)[C@H](CCCCN)NC(=O)[C@H](CO)NC(=O)[C@H](Cc1ccc(O)cc1)NC(=O)[C@H](CC(=O)O)NC(=O)[C@H](CO)NC(=O)[C@@H](NC(=O)[C@H](Cc1ccccc1)NC(=O)[C@@H](NC(=O)CNC(=O)[C@H](CCC(N)=O)NC(=O)C(C)(C)NC(=O)[C@@H](N)Cc1c[nH]cn1)[C@@H](C)O)[C@@H](C)O)C(=O)N[C@@H](CC(=O)O)C(=O)N[C@@H](C)C(=O)N[C@@H](CCCNC(=N)N)C(=O)N[C@@H](C)C(=O)N[C@@H](C)C(=O)N[C@@H](CCC(N)=O)C(=O)N[C@@H](CC(=O)O)C(=O)N[C@@H](Cc1ccccc1)C(=O)N[C@H](C(=O)N[C@@H](Cc1ccc(CNC(=O)CC[C@H](NC(=O)CCCCCCCCCCCCCCCCC(=O)O)C(=O)O)cc1)C(=O)N[C@@H](Cc1c[nH]c2ccccc12)C(=O)N[C@@H](CC(C)C)C(=O)N[C@@H](CC(C)C)C(=O)N[C@@H](CC(=O)O)C(=O)N[C@H](C(N)=O)[C@@H](C)O)C(C)C
GLP1R EC50 human [1]: 2.09 nM
GCGR EC50 human [2]: 3.38 nM

H[Aib]QGTFTSD[Phe(4-CH2NH2)]([AEEA-AEEA-γGlu-C16 diacid])SKYLD[Aib]RAAQDFVQWL[Met(O2)]ATK-{γGlu-NH2} [TP658]
GLP1R EC50 human [1]: 1.66 nM
GCGR EC50 human [2]: 3.2 nM
